Laboratory results taken from publication PMC9657007.

target: T1, EcxR (Ehrlichia chaffeensis) (UniProt Q2GG40); experiment: EMSA; details: EMSA: 10 mM Tris-HCl pH 7.5, 50 mM KCl, 5 mM MgCl2, 2.5% glycerol, 1 mM DTT, 50 ug/mL poly dI-dC, 20 fmol probe, room temperature 25 min (20 min in Fig …)
T1 sequence: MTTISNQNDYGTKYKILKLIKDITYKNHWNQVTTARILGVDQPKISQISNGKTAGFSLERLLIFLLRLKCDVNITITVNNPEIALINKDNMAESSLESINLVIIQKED

Which binding does the source give for “ATATAACCTAATAGTGACAAATAAATTAACAATAGTAGAAGTGTCATATAAAAGCAAGTCAGAATATAAATTTTTGTATAAAATATCGGTAACTTTTGTAAGGAAAATTTAATATATTACGTCAG (double strand) [p28-Omp19-P3]” here?
The binding was “binds”.

For “CAGGAGTTACTCCATGTGCAAGTAGTATCTTGTAAACACTAGTGTCTTTAACAACTGCAAGAGCTTGTAATAATCTCTCCACAGTTACATAAGTATCCTGATTCCTTTTTGCTAAACTAATAGCTTCTTCTAAAACCTGAGCCATTTCTTTTGATAAATGTATATGACCACTACCACTTCCACTTACAACAGGTAATTTACTTAAGGAGAGTTTTATATCACTGTATATCTTATCAATATCACATCCACATGAAGTCAGCAACA (double strand) [clpB-ORF]”, which binding is on record?
The binding was “no binding”.

With “CTTTTGTAAGGAAAATTTAATATATTACGTCAGGTAAGTAATAGCAAAAAAACTGGTTAAGTATAGTATCATGTGTAAAGGTGAGAAAAACAGCAC (double strand) [p28-Omp19-P2]” as the sequence, how does the binding read?
Its binding is “binds”.

With “GACTCTAGACTTTTAATTTTATTATTGCCACATGTTAAAAATAATCTAAACTTGTTTTTATTATTGCTGCAGGTAAATAAAAATAGTGGCAAAAGAATGTAGCAATAAGAGGGGGGGGGGGGGGACTAGTTTATAAGTGC (double strand) [p28-Omp19-P1]” as the sequence, how does the binding read?
Its binding is “no binding”.

For “GATTAATAGATTCTAGGGAACTCTCTGCCATATTGTCTTTGTTAATTAATGCAATTTCTGGGTTATTGACAGTGATTGTTATATTCACATCACATTTTAGACGTAACAAAAATATAAGTAAACGTTCTAATGAAAATCCTGCTGTTTTACCATTACTAATCTGAGATATTTTTGGTTGGTCTACGCCCAGTATCCTTGCTGTGGTTACTTGGTTCCAGTGATTCTTA (double strand) [ecxR-ORF]”, which binding is on record?
The binding was “no binding”.

Which binding does the source give for “GGATAAGTACTTTAGCAAGTGGTAAAAGCAAGTCTACTCATATTTTTATTAATTAAGTAGTAAAGTTAACTATAGATTTTATTAAAATTTTTATTCTAATCACTTTAAATATCAATTACTTTTGTTGTAAATTTGAAAGAAATTTTATATTCTAGAC (double strand) [p28-Omp14-P5]” here?
The binding was “no binding”.

How did the binding turn out when “GGTGTTTTTATAATTTTATTACTAAGATATTTTTTTATTAATAACTATATGCCAATACAGATAGTATAAGTATCTTATAATAAATCCATCATCTTAATGTAAGTAATACATATAACTAATAACAATAATATATTAACATTTTTATAGAATATCTATCATAATCAAACATTAACTAAATTCTCTACTAGCAGTAAATTGAATATCTACAATTTACACGTTCTACTGTTTTGCTTGCCAACTTAATTGATACTGCTTATCATCTGAATATCAAAAGATGATAGGGTACTGT (double strand) [clpB promoter EMSA probe]” was run?
The binding was “binds”.

How did the binding turn out when “GGTTTAGCCATTTTAAATGTGTTTAAAAAGAAATCTTTTTGACATTATTGTAAACTTATGATTTTTATTAAGGGGAAGAGTGAACAAAATACTGTTATTAGAAGTTTACAGAAAGTTAACTG (double strand) [p28-Omp14-P2]” was run?
The binding was “no binding”.

“GTACCTAAATCTATACCTATAACAGCCATAAATAGCCCCCTTACATAAAAATCAAAACTATAATCACAGATATAATAACCAAATCATAAGATTACAACCCCATTTAACACAAGTTCATAAATTTATGAA (double strand) [dnaK promoter EMSA probe]” was tested. Which binding did it give?
The binding was “binds”.

“GTTCCGTATTTATTAATATATGTTATAATGTAATTAAATAAGGATACTAGATTTGCTCATAATGCATGTACTGAATTTGTGATTTGAAATAACAAGACTTAAATGTCGAATTTAGCTTCTGTCCTAGTGGATAAGTACTTTAGCAAGTGGTAAAAGCAAGTCTACTCATATTTTTATTAATTAAGTAGTAAAGTTAACTATAG (double strand) [p28-Omp14-P4]” was tested. Which binding did it give?
The binding was “binds”.

How did the binding turn out when “GTTTTCTGCTTTATTAGAATGATTCCCAAATAAATTTTAATTAATTACTGTTCCGTATTTATTAATATATGTTATAATGTAATTAAATAAGGATACTAGATTTGCTCATAATGCATGTAC (double strand) [p28-Omp14-P3]” was run?
Its binding is “binds”.

“TAACTTACTTAAAAAATTAACTACTTAAATATCAACGATGTTTTCAGTATCAAGTCAATTGATTTTTTATGTGTTATGTAAACTGTTACAGAGTAATATAATATTTCTACTGGGTCCTATAAAGTTCTAACCTTGTAAACATTTGTGCAATATGTATTATAAAATTTATTGATTGATACTTGAAATTAGATTTCTTGATATTATATATGATCTTAGCTAGTAGTATCTGATGCTACTGATAATTTATTTTTTTATAGAGGTAG (double strand) [groES/L promoter EMSA probe]” was tested. Which binding did it give?
The binding was “binds”.

“TTGCTCAACCATAAAATAATGGGAAATTACCTTTTCTAGGAAGTTTCTCATTATTTAACAGTTAACTTTCTGTAAACTTCTAATAACAGTATTTTGTTCACTCTTCCCCTTAATAAAAATCATAAGTTTACAATAATGTCAAAAAGATTTCTTTTTAAACACATTTAAAATGGCTAAACC (double strand) [p28-Omp14-P1]” was tested. Which binding did it give?
Its binding is “binds”.

target: T2, Tr1 (Ehrlichia chaffeensis) (UniProt Q2GF81); experiment: Southwestern blot; details: EMSA: 10 mM Tris-HCl pH 7.5, 50 mM KCl, 5 mM MgCl2, 2.5% glycerol, 1 mM DTT, 50 ug/mL poly dI-dC, 20 fmol probe, room temperature 25 min (20 min in Fig …)
T2 sequence: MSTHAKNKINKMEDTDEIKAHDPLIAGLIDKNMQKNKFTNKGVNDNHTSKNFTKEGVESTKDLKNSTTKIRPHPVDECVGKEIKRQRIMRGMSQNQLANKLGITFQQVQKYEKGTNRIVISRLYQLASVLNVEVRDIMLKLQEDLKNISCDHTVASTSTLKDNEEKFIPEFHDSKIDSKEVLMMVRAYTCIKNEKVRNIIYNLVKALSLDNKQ

With “TACCCGGACAAACTGACTTTCATGTTTAATATAAATTATTGATCCAATCAAGCTAAAAAGTAAATAAATTTTATCTTATATTTCATAAAGCATAATATGTTATTTCTGTATATTATATAATTAGTATACTATTCCAGCAAACTAGATAGAATATATCCATTAAATAACTATTGCATTCACTTTATGCATGATTTATCTTACATAGGTTGCTTTGT (double strand) [tr1 promoter (SWB probe)]” as the sequence, how does the binding read?
The binding was “binds”.

target: T1, EcxR (Ehrlichia chaffeensis); experiment: Southwestern blot; details: EMSA: 10 mM Tris-HCl pH 7.5, 50 mM KCl, 5 mM MgCl2, 2.5% glycerol, 1 mM DTT, 50 ug/mL poly dI-dC, 20 fmol probe, room temperature 25 min (20 min in Fig …)

For “CTACCTCTATAAAAAAATAAATTATCAGTAGCATCAGATACTACTAGCTAAGATCATATATAATATCAAGAAATCTAATTTCAAGTATCAATCAATAAATTTTATAATACATATTGCACAAATGTTTACAAGGTTAGAACTTTATAGGACCCAGTAGAAATATTATATTACTCTGTAACAGTTTACATAACACATAAAAAATCAATTGACTTGATACTGAAAACATCGTTGATATTTAAGTAGTTAATTTTTTAAGTAAGTTAGCATGCGCTG (double strand) [groES/L promoter (SWB probe)]”, which binding is on record?
The binding was “binds”.

Which binding does the source give for “GGTGTTTTTATAATTTTATTACTAAGATATTTTTTTATTAATAACTATATGCCAATACAGATAGTATAAGTATCTTATAATAAATCCATCATCTTAATGTAAGTAATACATATAACTAATAACAATAATATATTAACATTTTTATAGAATATCTATCATAATCAAACATTAACTAAATTCTCTACTAGCAGTAAATTGAATATCTACAATTTACACGTTCTACTGTTTTGCTTGCCAACTTAATTGATACTGCTTATCATCTGAATATCAAAAGATGATAGGGTACTGT (double strand) [clpB promoter (SWB probe)]” here?
The binding was “binds”.

“GTACCTAAATCTATACCTATAACAGCCATAAATAGCCCCCTTACATAAAAATCAAAACTATAATCACAGATATAATAACCAAATCATAAGATTACAACCCCATTTAACACAAGTTCATAAATTTATGGCATGCGCTG (double strand) [dnaK promoter (SWB probe)]” was tested. Which binding did it give?
The binding was “binds”.

With “TACCCGGACAAACTGACTTTCATGTTTAATATAAATTATTGATCCAATCAAGCTAAAAAGTAAATAAATTTTATCTTATATTTCATAAAGCATAATATGTTATTTCTGTATATTATATAATTAGTATACTATTCCAGCAAACTAGATAGAATATATCCATTAAATAACTATTGCATTCACTTTATGCATGATTTATCTTACATAGGTTGCTTTGT (double strand) [tr1 promoter (SWB probe)]” as the sequence, how does the binding read?
Its binding is “binds”.
